# Measured values published in the supplement of paper PMC7877785.
# ± gives the uncertainty stated by the source.
# Assay: self-splicing fitness, log relative to wild type (ln ratio); higher = more splicing; Tetrahymena group I intron in knt gene, E. coli kanamycin selection, DiMSum; sequences stand for … in CUCUCU…GGAGGGAAAAGUUAUCAGGCAUGCACCUGGUAGCUAGUCUUUAAACCAAUAGAUUGCAUCGGUUUAAAAGGCAAGACCGUCAAAUUGCGGGAAAGGGGUCAACAGCCGUUCAGUACCAAGUCUCAGGGGAAACUUUGAGAUGGCCUUGCAAAGGGUAUGGUAAUAAGCUGACGGACAUGGUCCUAACCACGCAGCCAAGUCCUAAGUCAACAGAUCUUCUGUUGAUAUGGAUGCAGUUCACAGACUAAAUGUCGGUCGGGGAAGAUGUAUUCUUCUCAUAAGAUAUAGUCGGACCUCUCCUUAAUGGGAGCUAGCGGAUGAAGUGAUGCAACACUGGAGCCGCUGGGAACUAAUUUGUAUGCGAAAGUAUAUUGAUUAGUUUUGGAGUACUCGUGGUCG
# How it was run: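 The eight P1ex-region nucleotides of an intron in the knt kanamycin-resistance gene on pET-22b(+) were all randomised and the library put into E. coli BL21(DE3). Six replicate transformations were grown overnight at 37°C or 30°C on LB agar with or without 25 μg/mL kanamycin, together with 100 μg/mL carbenicillin, 50 μM IPTG and 0.2% rhamnose. Colonies were pooled and amplicon-sequenced on an Illumina HiSeq 2500. Fitness from DiMSum is the error-weighted combination of wild-type-normalised replicate fold changes, kanamycin over none.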
Sequence,self-splicing fitness (ln) (30 °C),self-splicing fitness (ln) (37 °C)
CAAAAGCAAUAUUACGCAGA,-2.57 ± 0.25,-1.49 ± 0.17
CAAAAGCAAUAUUACGCCAC,-2.1 ± 0.24,-1.89 ± 0.34
CAAAAGCAAUAUUACGCGCU,-3.18 ± 0.14,-0.642 ± 0.1
CAAAAGCAAUAUUACGCUGC,-3.02 ± 0.25,-3.03 ± 0.29
CAAAAGCAAUAUUACGGACC,-3 ± 0.21,-1.98 ± 0.2
CAAAAGCAAUAUUACGGAGC,-2.95 ± 0.18,-2.84 ± 0.25
CAAAAGCAAUAUUACGGCCA,-1.68 ± 0.21,-0.283 ± 0.16
CAAAAGCAAUAUUACGGGAC,-3.76 ± 0.35,-1.71 ± 0.17
CAAAAGCAAUAUUACGGUAC,-3.79 ± 0.23,-1.24 ± 0.18
CAAAAGCAAUAUUACGUGUA,-3.88 ± 0.16,-2.25 ± 0.1
CAAAAGCAAUAUUACGUUAA,-2.65 ± 0.16,-2.06 ± 0.12
CAAAAGCAAUAUUACGUUGC,-3.74 ± 0.18,-3.17 ± 0.23
CAAAAGCAAUAUUACGUUUC,-3.1 ± 0.28,-2.76 ± 0.2
CAACAGCAAUAUUACGACUU,-0.591 ± 0.058,-0.268 ± 0.074
CAACAGCAAUAUUACGAGCG,-0.235 ± 0.051,0.702 ± 0.077
CAACAGCAAUAUUACGAUCC,-2.87 ± 0.2,-1.4 ± 0.16
CAACAGCAAUAUUACGAUGC,-3.08 ± 0.15,-2.01 ± 0.16
CAACAGCAAUAUUACGCACA,-1.23 ± 0.077,-0.561 ± 0.083
CAACAGCAAUAUUACGCCGA,-2.35 ± 0.18,-1.76 ± 0.17
CAACAGCAAUAUUACGCCGC,-4.57 ± 0.34,–
CAACAGCAAUAUUACGCCUU,-2.95 ± 0.11,-1.1 ± 0.081
CAACAGCAAUAUUACGCGGC,-3.03 ± 0.21,-2.09 ± 0.23
CAACAGCAAUAUUACGGAAG,-0.947 ± 0.045,-0.607 ± 0.061
CAACAGCAAUAUUACGGACC,-2.98 ± 0.27,-0.864 ± 0.23
CAACAGCAAUAUUACGGAGC,-2.28 ± 0.15,-3.18 ± 0.27

Sequence,self-splicing fitness (ln) (30 °C),self-splicing fitness (ln) (37 °C)
CAACAGCAAUAUUACGGAGU,-3.71 ± 0.17,-1.22 ± 0.12
CAACAGCAAUAUUACGGCUA,-1.28 ± 0.073,-0.553 ± 0.073
CAACAGCAAUAUUACGGCUG,-1.27 ± 0.077,-1.24 ± 0.11
CAACAGCAAUAUUACGGUAA,-1.71 ± 0.089,-1.61 ± 0.094
CAACAGCAAUAUUACGGUUG,-3.26 ± 0.1,-2.27 ± 0.12
CAACAGCAAUAUUACGUAAA,-2.42 ± 0.069,-1.91 ± 0.098
CAACAGCAAUAUUACGUAGC,-4.19 ± 0.12,-2.49 ± 0.12
CAACAGCAAUAUUACGUAGU,-3.22 ± 0.12,-1.91 ± 0.11
CAACAGCAAUAUUACGUCCA,-1.75 ± 0.11,-1.35 ± 0.13
CAACAGCAAUAUUACGUCGA,-1.37 ± 0.09,-0.379 ± 0.077
CAACAGCAAUAUUACGUGUA,-2.41 ± 0.076,-1.76 ± 0.075
CAAGAGCAAUAUUACGAACA,–,-2.49 ± 0.33
CAAGAGCAAUAUUACGAAGC,-3.5 ± 0.23,-2.86 ± 0.24
CAAGAGCAAUAUUACGAGGA,-3.17 ± 0.33,-2.79 ± 0.44
CAAGAGCAAUAUUACGAUCA,-1.72 ± 0.16,-2.02 ± 0.24
CAAGAGCAAUAUUACGAUGU,-3.88 ± 0.23,-2.73 ± 0.25
CAAGAGCAAUAUUACGCUGG,-3.84 ± 0.3,-1.99 ± 0.19
CAAGAGCAAUAUUACGCUUG,–,-2.99 ± 0.47
CAAGAGCAAUAUUACGGAGA,-2.57 ± 0.28,-1.91 ± 0.22
CAAGAGCAAUAUUACGGAUU,-3.03 ± 0.25,-3.21 ± 0.37
CAAGAGCAAUAUUACGGGGU,-4.66 ± 0.2,-2.61 ± 0.19
CAAGAGCAAUAUUACGGUAC,-3.2 ± 0.26,-2.37 ± 0.21
CAAGAGCAAUAUUACGGUCG,-0.431 ± 0.05,-0.728 ± 0.065
CAAGAGCAAUAUUACGUAGU,-3.51 ± 0.2,-1.78 ± 0.19
CAAGAGCAAUAUUACGUCGU,-3.72 ± 0.23,-2.66 ± 0.25

Sequence,self-splicing fitness (ln) (30 °C),self-splicing fitness (ln) (37 °C)
CAAGAGCAAUAUUACGUGGU,-3.24 ± 0.11,-2.46 ± 0.16
CAAGAGCAAUAUUACGUUCU,-3.7 ± 0.27,-3.35 ± 0.23
CAAUAGCAAUAUUACGAAAU,-3.12 ± 0.15,-2.42 ± 0.23
CAAUAGCAAUAUUACGAAUA,-2.97 ± 0.39,-3.26 ± 0.32
CAAUAGCAAUAUUACGACAC,-3.61 ± 0.34,-1.88 ± 0.21
CAAUAGCAAUAUUACGACAG,-0.279 ± 0.077,0.138 ± 0.094
CAAUAGCAAUAUUACGACUA,-1.96 ± 0.36,-1.31 ± 0.27
CAAUAGCAAUAUUACGAGAG,-3.64 ± 0.23,-1.52 ± 0.12
CAAUAGCAAUAUUACGAUCA,-2.41 ± 0.17,-2.17 ± 0.16
CAAUAGCAAUAUUACGAUGC,-3.6 ± 0.24,-2.23 ± 0.23
CAAUAGCAAUAUUACGAUUG,-3.32 ± 0.17,-1.9 ± 0.16
CAAUAGCAAUAUUACGCCAC,-2.84 ± 0.28,–
CAAUAGCAAUAUUACGCGAG,-1.76 ± 0.086,-0.754 ± 0.096
CAAUAGCAAUAUUACGCGGU,-3.88 ± 0.19,-3.12 ± 0.2
CAAUAGCAAUAUUACGCUCA,-0.892 ± 0.11,-1.73 ± 0.14
CAAUAGCAAUAUUACGGACU,-4.49 ± 0.34,-2.11 ± 0.23
CAAUAGCAAUAUUACGGAGG,-1.16 ± 0.07,-1.26 ± 0.11
CAAUAGCAAUAUUACGGAGU,-4.14 ± 0.43,-2.04 ± 0.25
CAAUAGCAAUAUUACGGGAG,-2.53 ± 0.085,-2 ± 0.09
CAAUAGCAAUAUUACGGUAA,-2.8 ± 0.14,-2.81 ± 0.18
CAAUAGCAAUAUUACGGUUC,-3.3 ± 0.48,–
CAAUAGCAAUAUUACGUACA,-3.18 ± 0.4,-1.82 ± 0.25
CAAUAGCAAUAUUACGUGGC,-3.53 ± 0.16,-2.72 ± 0.2
CACAAGCAAUAUUACGAACG,-0.561 ± 0.055,0.286 ± 0.079
CACAAGCAAUAUUACGAAGA,-2.71 ± 0.18,-2.36 ± 0.2

Sequence,self-splicing fitness (ln) (30 °C),self-splicing fitness (ln) (37 °C)
CACAAGCAAUAUUACGACAC,-3.12 ± 0.11,-2.59 ± 0.12
CACAAGCAAUAUUACGACAU,-3.32 ± 0.017,-1.99 ± 0.033
CACAAGCAAUAUUACGACCA,-1.19 ± 0.16,-1.05 ± 0.16
CACAAGCAAUAUUACGAGAA,-2.29 ± 0.31,-2.41 ± 0.34
CACAAGCAAUAUUACGAGCG,-0.656 ± 0.099,0.331 ± 0.1
CACAAGCAAUAUUACGAGUG,-4.41 ± 0.15,-2.02 ± 0.12
CACAAGCAAUAUUACGAUGC,-4.12 ± 0.31,-2.69 ± 0.27
CACAAGCAAUAUUACGCCAC,–,-1.43 ± 0.43
CACAAGCAAUAUUACGCCGC,-2.66 ± 0.28,-2.34 ± 0.37
CACAAGCAAUAUUACGCGCC,-3.41 ± 0.26,-1.32 ± 0.16
CACAAGCAAUAUUACGCGUU,-2.55 ± 0.098,-1.3 ± 0.091
CACAAGCAAUAUUACGCUAU,-4.42 ± 0.26,-1.58 ± 0.14
CACAAGCAAUAUUACGCUCU,-3.04 ± 0.24,-1.38 ± 0.17
CACAAGCAAUAUUACGCUGA,-2.12 ± 0.12,-1.72 ± 0.12
CACAAGCAAUAUUACGGCGA,-1.3 ± 0.092,-0.406 ± 0.087
CACAAGCAAUAUUACGGCUG,-1.54 ± 0.072,-0.213 ± 0.087
CACAAGCAAUAUUACGGCUU,-3.67 ± 0.19,-2.98 ± 0.23
CACAAGCAAUAUUACGGGGA,-2.64 ± 0.11,-1.69 ± 0.1
CACAAGCAAUAUUACGGUUA,-1.01 ± 0.076,-0.918 ± 0.078
CACAAGCAAUAUUACGGUUG,-2.5 ± 0.1,-1.59 ± 0.12
CACAAGCAAUAUUACGUAGG,-1.23 ± 0.056,-0.693 ± 0.082
CACAAGCAAUAUUACGUAUA,-2.66 ± 0.13,-2.67 ± 0.16
